Reference: the supplement of paper PMC6757056
± gives the standard deviation of the averaged measurements.

B1: library; a variant is named by its letters at N, in order (parent)
chain: GCUGUCACCGGUGUAUUACCCUAGUGGUCGACCGGUCUGAUGAGUCUNNNNNNAGACGAAACAGC

What was measured:
hypoxanthine [1] = variants of: B1; test: FACS-Seq fitted mean relative fluorescence mCherry/BFP without ligand (log10 relative fluorescence); ligand: hypoxanthine (xanthine aptamer); higher = higher reporter protein expression; conditions: HEK293T, ligand present: no
In short: (§1)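 HEK293T libraries were lentivirally transduced with an mCherry reporter carrying the ribozyme switch and an EF1α-BFP marker, enriched, and incubated for 48 h with or without ligand before sorting into 6 bins by mCherry/BFP. Genomic DNA from each bin was PCR-amplified, barcoded and sequenced on MiSeq. Fluorescence is the fitted normal mean of the bin counts. The fit used log10(mCherry/BFP), and means were scaled to five spiked-in control ribozymes.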

hypoxanthine [2] = variants of: B1; test: normalized RNA/DNA level with ligand (relative to sTRSVctl = 100) (log10 (% of sTRSVctl)); ligand: hypoxanthine (xanthine aptamer); higher = less ribozyme self-cleavage, higher mRNA level; conditions: ligand concentration (+) RNA-Seq: 5 mM, HEK293T, reporter: mCherry (pCS4076), ligand present: yes
In short: (§2)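 RNA level was computed as RNA reads over DNA reads divided by a spiked-in non-cleaving sequence or by the top sequences, then scaled and log-transformed. Scaling was ×100 with log10, the top group was 25 sequences, and the threshold was ≥100 DNA reads. The reads came from HEK293T cells transfected at 4 µg per 6-well well with ribozyme switch library plasmids (mCherry, or eGFP in some ligand experiments). Total RNA was extracted with EDTA 72 h after transfection, with any ligand added 1 h before it.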

hypoxanthine [3] = variants of: B1; test: normalized RNA/DNA level without ligand (relative to sTRSVctl = 100) (log10 (% of sTRSVctl)); ligand: hypoxanthine (xanthine aptamer); higher = less ribozyme self-cleavage, higher mRNA level; conditions: HEK293T, reporter: mCherry (pCS4076), ligand present: no
In short: as §2

hypoxanthine [4] = variants of: B1; test: FACS-Seq fitted mean relative fluorescence mCherry/BFP with ligand (log10 relative fluorescence); ligand: hypoxanthine (xanthine aptamer); ligand concentration (+) FACS-Seq: 5 mM; higher = higher reporter protein expression; conditions: HEK293T, ligand present: yes
In short: as §1

Variant | FACS-Seq fitted mean (log10) (hypoxanthine [1]) | normalized RNA/DNA level with ligand (log10) (hypoxanthine [2]) | normalized RNA/DNA level without ligand (log10) (hypoxanthine [3]) | FACS-Seq fitted mean (log10) (hypoxanthine [4])
AGCGCU | 0.228 ± 0.049 | 1.93 ± 0.032 | 1.85 ± 0.028 | 0.22 ± 0.0027
GCUCUG | 0.3 ± 0.0076 | 1.89 ± 0.045 | 1.32 ± 0.05 | 0.685 ± 0.024
AUCAGA | -0.0827 ± 0.0075 | 1.9287 ± 0.00064 | 1.828 ± 0.0044 | 0.00695 ± 0.085
AUCAGU | 0.169 ± 0.016 | 1.885 ± 0.012 | 1.772 ± 0.0019 | 0.476 ± 0.069
CAACAU | 0.722 ± 0.052 | 1.87 ± 0.032 | 1.75 ± 0.035 | 0.672 ± 0.078
GAAGGA | 0.247 ± 0.034 | 1.92 ± 0.021 | 1.64 ± 0.031 | 0.559 ± 0.021
UAGGGU | 0.526 ± 0.034 | 1.84 ± 0.067 | 1.5 ± 0.027 | 0.632 ± 0.075
AAUAGU | 0.36 ± 0.029 | 1.87 ± 0.027 | 1.61 ± 0.016 | 0.505 ± 0.041
AAGCUG | 0.17 ± 0.068 | 1.72 ± 0.032 | 1.23 ± 0.054 | 0.481 ± 0.046
UCCGGA | 0.226 ± 0.02 | 1.96 ± 0.031 | 1.75 ± 0.021 | 0.384 ± 0.0052
ACGCAG | -0.302 ± 0.02 | 1.58 ± 0.041 | 1.09 ± 0.044 | 0.377 ± 0.039
CCAGAA | 0.561 ± 0.0022 | 1.94 ± 0.053 | 1.79 ± 0.053 | 0.631 ± 0.011
AAUGAU | 0.38227 ± 0.00021 | 1.88 ± 0.041 | 1.683 ± 0.0061 | 0.571 ± 0.06
AAGGGU | 0.236 ± 0.0092 | 1.835 ± 0.0086 | 1.54 ± 0.072 | 0.4 ± 0.093
GAAGUU | -0.155 ± 0.12 | 1.966 ± 0.0047 | 1.831 ± 0.008 | -0.587 ± 0.17
ACGGGA | 0.166 ± 0.0066 | 1.84 ± 0.024 | 1.371 ± 0.0073 | 0.623 ± 0.022
ACAAAU | 0.311 ± 0.091 | 1.89 ± 0.029 | 1.65 ± 0.044 | 0.331 ± 0.014
GAGAAC | 0.417 ± 0.072 | 1.912 ± 0.0063 | 1.63 ± 0.038 | 0.735 ± 0.033
GGAAUU | 0.904 ± 0.078 | 1.955 ± 0.011 | 1.89 ± 0.045 | 0.815 ± 0.039
AGCCAU | -0.282 ± 0.012 | 1.92 ± 0.052 | 1.78 ± 0.027 | 0.15 ± 0.033
AUCCUG | 0.0565 ± 0.03 | 1.944 ± 0.013 | 1.54 ± 0.086 | 0.437 ± 0.048
AAUAUA | 0.619 ± 0.062 | 1.89 ± 0.024 | 1.78 ± 0.034 | 0.599 ± 0.07
AGCCCA | 0.0335 ± 0.1 | 1.923 ± 0.018 | 1.88 ± 0.025 | -0.145 ± 0.064
GUCCAC | -0.048 ± 0.034 | 1.94 ± 0.054 | 1.848 ± 0.0045 | 0.0349 ± 0.08

Variant | FACS-Seq fitted mean (log10) (hypoxanthine [1]) | normalized RNA/DNA level with ligand (log10) (hypoxanthine [2]) | normalized RNA/DNA level without ligand (log10) (hypoxanthine [3]) | FACS-Seq fitted mean (log10) (hypoxanthine [4])
GUAAAU | 0.503 ± 0.07 | 1.88 ± 0.053 | 1.778 ± 0.011 | 0.467 ± 0.11
CGGAGG | 0.0652 ± 0.064 | 1.78 ± 0.12 | 1.28 ± 0.021 | 0.528 ± 0.0064
AUUCGG | 0.175 ± 0.028 | 1.87 ± 0.021 | 1.46 ± 0.024 | 0.625 ± 0.014
AAUACC | 0.491 ± 0.22 | 1.933 ± 0.019 | 1.895 ± 0.0024 | 0.448 ± 0.018
GAAUUG | 0.0724 ± 0.04 | 1.81 ± 0.032 | 1.4 ± 0.076 | 0.434 ± 0.011
GUGUAA | 0.291 ± 0.061 | 1.85 ± 0.024 | 1.67 ± 0.049 | 0.495 ± 0.043
GUGUAU | 0.314 ± 0.018 | 1.91 ± 0.056 | 1.737 ± 0.017 | 0.33 ± 0.021
UGACUA | 0.629 ± 0.091 | 1.953 ± 0.017 | 1.86 ± 0.029 | 0.141 ± 0.079
AAUAAU | 0.172 ± 0.059 | 1.89 ± 0.022 | 1.75 ± 0.021 | 0.376 ± 0.046
AAUAAG | 0.306 ± 0.0098 | 1.83 ± 0.024 | 1.473 ± 0.005 | 0.638 ± 0.04
AUGAUA | -0.373 ± 0.027 | 1.9 ± 0.036 | 1.736 ± 0.013 | -0.00691 ± 0.00025
AACGCG | -0.0882 ± 0.017 | 1.812 ± 0.011 | 1.33 ± 0.08 | 0.162 ± 0.024
CAACGC | 0.362 ± 0.014 | 1.92 ± 0.073 | 1.87 ± 0.019 | 0.326 ± 0.019
AACUGG | 0.285 ± 0.031 | 1.7871 ± 0.0011 | 1.42 ± 0.039 | 0.67312 ± 0.00058
UCCGCG | 0.209 ± 0.032 | 1.894 ± 0.009 | 1.512 ± 0.011 | 0.621 ± 0.055
UAGGAU | 0.683 ± 0.097 | 1.94 ± 0.027 | 1.66 ± 0.021 | 0.628 ± 0.013
CACGAA | 0.226 ± 0.02 | 1.87 ± 0.02 | 1.72 ± 0.037 | 0.363 ± 0.022
GGGUGA | 0.0881 ± 0.05 | 1.95 ± 0.033 | 1.71 ± 0.031 | 0.487 ± 0.0065
AUGGCG | 0.211 ± 0.015 | 1.894 ± 0.018 | 1.38 ± 0.075 | 0.691 ± 0.042
GUGGAU | 0.3032 ± 0.0022 | 1.917 ± 0.019 | 1.74 ± 0.05 | 0.467 ± 0.024
CAAGCA | 0.544 ± 0.054 | 1.964 ± 0.012 | 1.7 ± 0.063 | 0.609 ± 0.094
AUAGCG | -0.227 ± 0.035 | 1.87 ± 0.045 | 1.36 ± 0.057 | -0.0558 ± 0.023
CGCGUA | 0.477 ± 0.0013 | 1.95 ± 0.041 | 1.81 ± 0.067 | 0.659 ± 0.013
GUAAUU | 0.444 ± 0.086 | 1.91 ± 0.047 | 1.9 ± 0.025 | 0.229 ± 0.036

Variant | FACS-Seq fitted mean (log10) (hypoxanthine [1]) | normalized RNA/DNA level with ligand (log10) (hypoxanthine [2]) | normalized RNA/DNA level without ligand (log10) (hypoxanthine [3]) | FACS-Seq fitted mean (log10) (hypoxanthine [4])
GGGCUA | 0.512 ± 0.024 | 2.01 ± 0.015 | 1.943 ± 0.015 | 0.456 ± 0.011
AGGAAC | 0.573 ± 0.093 | 1.91 ± 0.042 | 1.66 ± 0.039 | 0.568 ± 0.099
AGCAAG | 0.616 ± 0.025 | 1.81 ± 0.024 | 1.45 ± 0.056 | 0.87 ± 0.096
CUCCAU | -0.247 ± 0.08 | 1.96 ± 0.023 | 1.8932 ± 0.0013 | 0.134 ± 0.038
AAGGAU | 0.678 ± 0.038 | 1.91 ± 0.037 | 1.653 ± 0.013 | 0.732 ± 0.042
UACUGU | 0.399 ± 0.032 | 1.95 ± 0.066 | 1.67 ± 0.011 | 0.638 ± 0.036
CAACUU | 0.257 ± 0.007 | 1.95 ± 0.043 | 1.873 ± 0.0032 | 0.377 ± 0.026
CUAUGG | 0.518 ± 0.013 | 1.888 ± 0.00026 | 1.6 ± 0.027 | 0.234 ± 0.17
UCUGUG | -0.545 ± 0.051 | 1.91 ± 0.052 | 1.706 ± 0.0071 | -0.796 ± 0.03
GAGCUG | 0.345 ± 0.0035 | 1.86 ± 0.03 | 1.31 ± 0.028 | 0.75 ± 0.083
UUCAAU | -0.589 ± 0.025 | 1.937 ± 0.015 | 1.81 ± 0.024 | -0.1336 ± 0.00015
CGAGAA | 0.492 ± 0.014 | 1.907 ± 0.0062 | 1.58 ± 0.0075 | 0.65 ± 0.015
CCGGGA | 0.607 ± 0.06 | 1.97 ± 0.022 | 1.82 ± 0.037 | 0.674 ± 0.071
AUGAGG | -0.0108 ± 0.028 | 1.644 ± 0.0044 | 1.15 ± 0.056 | 0.252 ± 0.059
AGUAAU | 0.85054 ± 0.00034 | 1.88 ± 0.03 | 1.85 ± 0.056 | 0.78 ± 0.058
CCCCAA | -0.321 ± 0.081 | 1.92 ± 0.018 | 1.78 ± 0.046 | -0.16 ± 0.025
ACACGU | 0.624 ± 0.02 | 1.95 ± 0.079 | 1.823 ± 0.0069 | 0.572 ± 0.096
GGUUUA | 0.149 ± 0.053 | 1.96 ± 0.024 | 1.87 ± 0.034 | 0.3294 ± 0.00074
AUAUGA | 0.609 ± 0.0086 | 1.924 ± 0.0023 | 1.7 ± 0.02 | 0.758 ± 0.018
UUACUG | 0.491 ± 0.085 | 1.93 ± 0.039 | 1.67 ± 0.034 | 0.536 ± 0.13
UGAGCC | 0.846 ± 0.017 | 2.003 ± 0.02 | 1.94 ± 0.051 | 0.805 ± 0.11
AGCAGG | 0.0745 ± 0.0069 | 1.83 ± 0.055 | 1.396 ± 0.0059 | 0.533 ± 0.079
GUUACU | 0.523 ± 0.11 | 1.946 ± 0.0064 | 1.89 ± 0.06 | 0.466 ± 0.036
